Assay results as given in the supplement of paper PMC9170038.

How the values were obtained:
MS2 coat protein [1] = experiment: apparent KD of MS2 coat protein, switch ON state; designed switch direction (-1 OFF switch, 1 ON switch): -1; higher = weaker reporter binding; settings: FMN input: 0 or 200 uM; Eterna round: R93 (includes R88 designs)
Method in brief: (§1)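 For every design, apparent KD is the median of normalised binding-curve fits from its clusters. The RNA switches were transcribed on-chip from Illumina sequencing clusters and titrated with SNAP-549-labelled MS2 coat protein (twofold steps, 0.7 or 1.5 nM to 3 µM; 0.8–1.5 h to 10–20 min per step). Titrations used 100 mM Tris-HCl pH 7.5, 80 mM KCl, 4 mM MgCl2, without or with constant ligand.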

MS2 coat protein [2] = experiment: apparent KD of MS2 coat protein, switch OFF state (with FMN for OFF switches, without FMN for ON switches); designed switch direction (-1 OFF switch, 1 ON switch): -1; higher = weaker reporter binding; settings: FMN input: 0 or 200 uM; Eterna round: R93 (includes R88 designs)
Method in brief: as §1

MS2 coat protein [3] = experiment: apparent KD of MS2 coat protein; designed switch direction (-1 OFF switch, 1 ON switch): 1; higher = weaker reporter binding
Method in brief: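 SNAP-549-labelled MS2 coat protein was titrated, doubling from 0.7 or 1.5 nM to 3 µM, over designed RNA switches transcribed on Illumina chips by stalled E. coli RNA polymerase. Runs were done without input, with 200 uM small-molecule ligand, or with an oligonucleotide input. Apparent KD is the per-design median over clusters of curve-fitted normalised fluorescence.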

[4] = Eterna round: R95, input ligand: FMN 200 uM
[5] = Eterna round: R95, input ligand: microRNA oligo, concentration not stated
[6] = Eterna round: R95, input ligand: none

| Sequence | apparent KD of MS2 coat protein (MS2 coat protein [1]) | apparent KD of MS2 coat protein (MS2 coat protein [2]) | other results |
| --- | --- | --- | --- |
| AAUGGUGCAGGAUAUACAUGAGGAUCACCCAUGUACAUCAGACAUAUGGUCGAAACAUGUAGAAGGGCACCAAA [Ex 3May 55] | 0.107 µM | 0.336 µM |  |
| AAAAAGUUAGGAUAUACAUGAGGAUCACCCAUGUGCACGUAUGGAGAAUAUGGUGGUAGUAGAAGGGACAAAAA [EX2 Malc#18] | 0.0553 µM | 0.0666 µM |  |
| AACUGGGCAGGAUAUACAUGAGGAUCACCCAUGUAAAGAAAAGAAAGAUCCGAAGAAAGUAGAAGGGCCUGGAA [Variant 3 of Mod 1 of Ex3 sub 3, by Tesla's Dusciple Round 1] | 0.098 µM | 0.126 µM |  |
| AAAAAACAUGAGGAUCACCCAUGUCAGGAUAUCCGGUUCAAAAAAAAAAAAAGGCGUUGGAGAAGGGACAUUCC [Chica Displaced 10 - Jieux - Exclusion 1] | 0.028 µM | 0.0364 µM |  |
| AACAGUACAGGAUAUACAUGAGGAUCACCCAUGUGAAAUAAAAGUGGCGUACCACAAAGUAGAAGGGUACUGGA [Mat - Exclusion 3 - JL mod - D22] | 0.0273 µM | 0.119 µM |  |
| AGAAUACAUGAGGAUCACCCAUGUGAGGAUAUGUAGAUAAAAAUAAAAUAAAAUAAAUACAGAAGGCGCAAAAG [EX 1 May 20] | 0.0445 µM | 0.0449 µM |  |
| AAAACGUGAGGAUAUGCACCAAAAAAGGUUUUUCGGGUACGACAUGAGGAUCACCCAUGUAGAAGGCACGAAAA [Frodo Flailing 14 - Jieux - Exclusion 2] | 0.0203 µM | 0.0141 µM |  |
| AAAGGACGAGGAUAUACAUGAGGAUCACCCAUGUAAAAAGCGUAGCAAAAGAGCUUAUGUAGAAGGCGUCCAAA [Meechl Ex3 2 R2 v4] | 0.02 µM | 0.0493 µM |  |
| CCCAUGUCAGGAUAUCAGUAGUAAAAAAAAAAAAUUACUACUGAGAAGGGACAUGAGGAUCACCCAUGUACCUU [EX4 319: Super Stable 19] | 0.0721 µM | 0.0681 µM |  |
| CAAAACAAAGGAUAUAAAACAGAGGAUAUACAUAAAUAAAAACAUGAGGAUCACCCAUGUAGAAGGCUGAAAAC [Meechl Ex2 R2 m3] | 0.0219 µM | 0.023 µM |  |
| AAUAACCGAGGAUAUACAUGAGGAUCACCCAUGUGAACAUCCACGAAAAGGAUUCUGUGUAGAAGGCGGAAACC [Soquar] | 0.0153 µM | 0.0134 µM |  |
| AUCAUGUCAGGAUAUCGUGCAGCUACCGAAAGGUAGCUGCACGAGAAGGGACAUGAGGAUCACCCAUGUAUGAA | 0.0277 µM | 0.0243 µM |  |
| AAAACGGUAGGAUAUACGAUUUGGAACUAGACCGAGGAACCACAUGAGGAUCACCCAUGUAGAAGGACCAAAAA [EX2 Malc#18] | 0.0119 µM | 0.0107 µM |  |
| AGUAUGCGAGGAUAUACAUGAGGAUCACCCAUGUGAGAGAUAUGAGUGAGAAAGACAAGUAGAAGGCGCGUACA [JL Lego Mod 26] | 0.0998 µM | 0.0114 µM |  |
| AGCUAGACAGGAUAUACGUAAAUGUCGAAAGACGUAUAGGGACAUGAGGAUCACCCAUGUAGAAGGGUCUAGCA [Diamond 100] | 0.0227 µM | 0.0396 µM |  |
| AAAAAGGGAGGAUAUACAUGAGGAUCACCCAUGUAAAAAAUCGCGGGAGGGAGGGAAGGUAGAAGGCCCAAAAA [Excls3-V] | 0.0201 µM | 0.0155 µM |  |
| AAAGGACGAGGAUAUACAUGAGGAUCACCCAUGUAAAAAACAUAGUCAAAGGGCUUGUGUAGAAGGCGUCCAAA [Meechl Ex3 2 R2 v11] | 0.0502 µM | 0.229 µM |  |
| AAGAAGUCAGGAUAUGCCAGAGAUCAAGAAAGUGACGAGUAGCAGAAGGGACAUGAGGAUCACCCAUGUAAAGA [Opal 8] | 0.0459 µM | 0.0369 µM |  |
| AAGAGUAGAGGAUAUACAUGAGGAUCACCCAUGUAAUCCAGAUAAGGAAGCAUGUCGUGUAGAAGGCUGCAUGA [MOD 2 of Nando (MS2 Riboswitches- Exclusion 3)] | 0.0159 µM | 0.0144 µM |  |
| CUCAAGUAAGGAUAUCGAAGAAAAGAAGAGAAAGAAAAGAACGAGAAGGUACAUGAGGAUCACCCAUGUAAGAA [EteRNA is fun!] | 0.0324 µM | 0.028 µM |  |
| AAAAAGUGAGGAUAUACGCUGAAGAGAAGACACAACCAGGCGUAGAAGGCACAUGAGGAUCACCCAUGUACAAA [Ex4 Malc#8] | 0.0282 µM | 0.0273 µM |  |

| Sequence | apparent KD of MS2 coat protein (MS2 coat protein [1]) | apparent KD of MS2 coat protein (MS2 coat protein [2]) | other results |
| --- | --- | --- | --- |
| AAACGUUGAGGAUAUACGAAAAAGGGUAGGUCAAAAAAAACACAUGAGGAUCACCCAUGUAGAAGGCAACGAAA [Similarities v.1 (13nt loop FMN+)] | 0.0714 µM | 0.0451 µM |  |
| AACAGUACAGGAUAUACAUGAGGAUCACCCAUGUGAAGAAUAAGUGGAGUACCACAAAGUAGAAGGGUACUGGA [Ruby 88] | 0.0318 µM | 0.104 µM |  |
| AAAGAGUCAGGAUAUUCGUAUAGAGUAGCGCGACUCUAUACGAAGAAGGGACAUGAGGAUCACCCAUGUAAAAA [Ecls4-I] | 0.0506 µM | 0.0511 µM |  |
| AACAUGUCAGGAUAUGUGGAAAGAAUAAAAGAAAUAAGAACACAGAAGGGACAUGAGGAUCACCCAUGUCAACA [May 31] | 0.0277 µM | 0.0257 µM |  |
| AAAGGAGUAGGAUAUACAUGAGGAUCACCCAUGUAAAAAACAUAAUAAAAGAACUUAUGUAGAAGGGCUCCAAA [69%, Moding Meechl, 11] | 0.0358 µM | 0.0779 µM |  |
| AAAAAACAUGAGGAUCACCCAUGUAAGGAUAUGCUCGUAAGUGCGAAAGCACAAAUGAGCAGAAGGUACAAAAA [66%, Wbt, 44] | 0.0192 µM | 0.031 µM |  |
| AAAUUGUCAGGAUAUGUAGCAAAAGGUGAUCAAAAAAAGCUACAGAAGGGACAUGAGGAUCACCCAUGUAAAAA [Ex4: 936] | 0.242 µM | 0.359 µM |  |
| AAAAAACAUGAGGAUCACCCAUGUCAGGAUAUCGUUGAAAAAAAAAAAAAAAAAAAAGCGAGAAGGGACACGAA [exclusion1-cac3] | 0.0607 µM | 0.0418 µM |  |
| AAUUAGGUAGGAUAUACAUGAGGAUCACCCAUGUGGGAAAAAAACUACGAAAAAGAAUGUAGAAGGACCUAAAA [Mat - Exclusion 3 - Mayanna mod - D104] | 0.0203 µM | 0.0965 µM |  |
| AAAUGUCUAGGAUAUACAUGAGGAUCACCCAUGUGUAAAAAUAAAUACACAAAAGAAAGUAGAAGGAGACAAAG [Mat - Exclusion 3 - Mayanna mod - D121] | 0.0216 µM | 0.0599 µM |  |
| GGAAAACAUGAGGAUCACCCAUGUAAGGAUAUGCUAAAAAAAAAAAAAAAAAAAAAAUGCAGAAGGUACUAAAG [Amethyst 18] | 0.034 µM | 0.118 µM |  |
| AUCGUUGGAGGAUAUGCUUGGAAAAAAAAAAAAAAAAAAAAACAUGAGGAUCACCCAUGUAGAAGGUCAAUGGA [Banishment 6 - Jieux - Exclusion 2] | 0.0499 µM | 0.0305 µM |  |
| AACUGACAUGAGGAUCACCCAUGUCAGGAUAUGCUUCAUAAAAUAAAAAUAAAAUGAUGCAGAAGGGACAUGAA [Design 27 :P Sub-opt 3] | 0.0154 µM | 0.0135 µM |  |
| AUAGGCCUAGGAUAUACAUGAGGAUCACCCAUGUUAAUAAUUCAAACAUGAUAAACGUGUAGAAGGAGGAAUAA [JR_Exc003_Sub302] | 0.0408 µM | 0.0653 µM |  |
| AAGAAGACAGGAUAUACAUGAGGAUCACCCAUGUAAAAGAAAGAAGGGAAAGAGAAAAGUAGAAGGGUCAAGAA [Menkheperre Ini] | 0.0236 µM | 0.0253 µM |  |
| AAAGGACGAGGAUAUACAUGAGGAUCACCCAUGUAAAAAACAUAGUAAAAGAGCUUGUGUAGAAGGCGUCCAAA [Meechl Ex3 2 R2 v8] | 0.0945 µM | 0.215 µM |  |
| GCACUGGCGGUAGGAUAUCUAGGAUAUGGGAAAGACUAAGUCUGUAGGUCACCUAACCCAGAAGGAGAGAAGGACCCUGUAAGG [pwkr ssNG2 2FMN + F9.22] (Eterna round: R96, puzzle: Same State NG 2) |  |  | apparent KD of MS2 coat protein (MS2 coat protein [3]; input ligand: FMN 200 uM): 0.00655 µM; apparent KD of MS2 coat protein (MS2 coat protein [3]; input ligand: microRNA oligo, concentration not stated): 0.00133 µM; apparent KD of MS2 coat protein (MS2 coat protein [3]; input ligand: none): 0.0181 µM |
| UACUAUCUAUCUCAGGAUAUCAUGUCAAAGACAUGAGGAUCACCCAUGUACCAGGAAACUGGUUAUGAGAAGGGAGAUAGAUAGA [Mat - Same State 2 - Mod - D39] (puzzle: Same State 2) |  |  | apparent KD of MS2 coat protein (MS2 coat protein [3]; [4]): 0.0982 µM; apparent KD of MS2 coat protein (MS2 coat protein [3]; [5]): 0.0451 µM; apparent KD of MS2 coat protein (MS2 coat protein [3]; [6]): 0.234 µM |
| AGUCCAGCCAAAGCUGGACAAAAGCAUGUACAUGAGGAUCACCCAUGUUCAUGUACAAGCUUUUUGCAAGUCAAAAG [Mat - hsa-mir-208a - Mod of JL - 77] (puzzle: Sensor for hsa-mir-208a) |  |  | apparent KD of MS2 coat protein (MS2 coat protein [3]; [4]): 0.332 µM; apparent KD of MS2 coat protein (MS2 coat protein [3]; [5]): 0.0295 µM; apparent KD of MS2 coat protein (MS2 coat protein [3]; [6]): 0.498 µM |
| GGUACACAUGAGGAUCACCCAUGUCGUAUGACAUGAGGAUAUGUACAGACUUCGGUCUGUACAGAAGGCAUGUGUC [SS1 - 1011 Omei Mod 4] (puzzle: Same State 1) |  |  | apparent KD of MS2 coat protein (MS2 coat protein [3]; [5]): 0.0245 µM |
